Test results from publication PMC8816810.

Biological target: AMdnB (Anabaena sp. PCC 7120)
Assay: ITC

Kd: 12.3 µM
Binder: MPENRQEDLNAQAVPFFARFLEGQ [AMdnA_(1–24) peptide (truncated AMdnA LP)]
